T1: human IL-18BP (human, UniProt O95998 31-194)
T1 construct: UniProt printed as 095998; also called hIL-18BP
T1 sequence: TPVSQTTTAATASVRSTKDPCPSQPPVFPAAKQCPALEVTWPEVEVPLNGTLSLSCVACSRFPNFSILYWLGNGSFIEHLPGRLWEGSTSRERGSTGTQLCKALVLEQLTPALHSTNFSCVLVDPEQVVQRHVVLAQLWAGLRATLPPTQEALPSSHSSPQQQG

B1: SA301a LC-H92A (antibody, V domains shown)
VH: QVQLQESGPGLVKPSQTLSLTCTVSGYSITSDYNSHWIRQPPGKGLEWIGYIHYSGSTNYNPSLKSRVTISRDTSKNQFSLKLSSVTAADTAVYYCARNYGSIYVNYFDYWGQGTLVTVSS
VL: EIVLTQSPATLSLSPGERATLSCSASSSVSYMYWYQQKPGQAPRPLIYRTSNLASGIPARFSGSGSGTDFTLTISSLEPEDFAVYYCQQYASYPTFGGGTKVEIK
B2: SA301a LC-S93I (antibody, V domains shown)
VH: QVQLQESGPGLVKPSQTLSLTCTVSGYSITSDYNSHWIRQPPGKGLEWIGYIHYSGSTNYNPSLKSRVTISRDTSKNQFSLKLSSVTAADTAVYYCARNYGSIYVNYFDYWGQGTLVTVSS
VL: EIVLTQSPATLSLSPGERATLSCSASSSVSYMYWYQQKPGQAPRPLIYRTSNLASGIPARFSGSGSGTDFTLTISSLEPEDFAVYYCQQYHIYPTFGGGTKVEIK
B3: SA301a LC-S93D (antibody, V domains shown)
VH: QVQLQESGPGLVKPSQTLSLTCTVSGYSITSDYNSHWIRQPPGKGLEWIGYIHYSGSTNYNPSLKSRVTISRDTSKNQFSLKLSSVTAADTAVYYCARNYGSIYVNYFDYWGQGTLVTVSS
VL: EIVLTQSPATLSLSPGERATLSCSASSSVSYMYWYQQKPGQAPRPLIYRTSNLASGIPARFSGSGSGTDFTLTISSLEPEDFAVYYCQQYHDYPTFGGGTKVEIK
B4: SA301a LC-H92T (antibody, V domains shown)
VH: QVQLQESGPGLVKPSQTLSLTCTVSGYSITSDYNSHWIRQPPGKGLEWIGYIHYSGSTNYNPSLKSRVTISRDTSKNQFSLKLSSVTAADTAVYYCARNYGSIYVNYFDYWGQGTLVTVSS
VL: EIVLTQSPATLSLSPGERATLSCSASSSVSYMYWYQQKPGQAPRPLIYRTSNLASGIPARFSGSGSGTDFTLTISSLEPEDFAVYYCQQYTSYPTFGGGTKVEIK
B5: SA301a LC-S93A (antibody, V domains shown)
VH: QVQLQESGPGLVKPSQTLSLTCTVSGYSITSDYNSHWIRQPPGKGLEWIGYIHYSGSTNYNPSLKSRVTISRDTSKNQFSLKLSSVTAADTAVYYCARNYGSIYVNYFDYWGQGTLVTVSS
VL: EIVLTQSPATLSLSPGERATLSCSASSSVSYMYWYQQKPGQAPRPLIYRTSNLASGIPARFSGSGSGTDFTLTISSLEPEDFAVYYCQQYHAYPTFGGGTKVEIK
B6: SA301a LC-S93G (antibody, V domains shown)
VH: QVQLQESGPGLVKPSQTLSLTCTVSGYSITSDYNSHWIRQPPGKGLEWIGYIHYSGSTNYNPSLKSRVTISRDTSKNQFSLKLSSVTAADTAVYYCARNYGSIYVNYFDYWGQGTLVTVSS
VL: EIVLTQSPATLSLSPGERATLSCSASSSVSYMYWYQQKPGQAPRPLIYRTSNLASGIPARFSGSGSGTDFTLTISSLEPEDFAVYYCQQYHGYPTFGGGTKVEIK
B7: SA301a LC-S93L (antibody, V domains shown)
VH: QVQLQESGPGLVKPSQTLSLTCTVSGYSITSDYNSHWIRQPPGKGLEWIGYIHYSGSTNYNPSLKSRVTISRDTSKNQFSLKLSSVTAADTAVYYCARNYGSIYVNYFDYWGQGTLVTVSS
VL: EIVLTQSPATLSLSPGERATLSCSASSSVSYMYWYQQKPGQAPRPLIYRTSNLASGIPARFSGSGSGTDFTLTISSLEPEDFAVYYCQQYHLYPTFGGGTKVEIK
B8: SA301a LC-S93F (antibody, V domains shown)
VH: QVQLQESGPGLVKPSQTLSLTCTVSGYSITSDYNSHWIRQPPGKGLEWIGYIHYSGSTNYNPSLKSRVTISRDTSKNQFSLKLSSVTAADTAVYYCARNYGSIYVNYFDYWGQGTLVTVSS
VL: EIVLTQSPATLSLSPGERATLSCSASSSVSYMYWYQQKPGQAPRPLIYRTSNLASGIPARFSGSGSGTDFTLTISSLEPEDFAVYYCQQYHFYPTFGGGTKVEIK
B9: SA301a LC-S93Q (antibody, V domains shown)
VH: QVQLQESGPGLVKPSQTLSLTCTVSGYSITSDYNSHWIRQPPGKGLEWIGYIHYSGSTNYNPSLKSRVTISRDTSKNQFSLKLSSVTAADTAVYYCARNYGSIYVNYFDYWGQGTLVTVSS
VL: EIVLTQSPATLSLSPGERATLSCSASSSVSYMYWYQQKPGQAPRPLIYRTSNLASGIPARFSGSGSGTDFTLTISSLEPEDFAVYYCQQYHQYPTFGGGTKVEIK
B10: SA301a LC-S93P (antibody, V domains shown)
VH: QVQLQESGPGLVKPSQTLSLTCTVSGYSITSDYNSHWIRQPPGKGLEWIGYIHYSGSTNYNPSLKSRVTISRDTSKNQFSLKLSSVTAADTAVYYCARNYGSIYVNYFDYWGQGTLVTVSS
VL: EIVLTQSPATLSLSPGERATLSCSASSSVSYMYWYQQKPGQAPRPLIYRTSNLASGIPARFSGSGSGTDFTLTISSLEPEDFAVYYCQQYHPYPTFGGGTKVEIK
B11: SA301a LC-S93Y (antibody, V domains shown)
VH: QVQLQESGPGLVKPSQTLSLTCTVSGYSITSDYNSHWIRQPPGKGLEWIGYIHYSGSTNYNPSLKSRVTISRDTSKNQFSLKLSSVTAADTAVYYCARNYGSIYVNYFDYWGQGTLVTVSS
VL: EIVLTQSPATLSLSPGERATLSCSASSSVSYMYWYQQKPGQAPRPLIYRTSNLASGIPARFSGSGSGTDFTLTISSLEPEDFAVYYCQQYHYYPTFGGGTKVEIK
B12: SA301a LC-S93K (antibody, V domains shown)
VH: QVQLQESGPGLVKPSQTLSLTCTVSGYSITSDYNSHWIRQPPGKGLEWIGYIHYSGSTNYNPSLKSRVTISRDTSKNQFSLKLSSVTAADTAVYYCARNYGSIYVNYFDYWGQGTLVTVSS
VL: EIVLTQSPATLSLSPGERATLSCSASSSVSYMYWYQQKPGQAPRPLIYRTSNLASGIPARFSGSGSGTDFTLTISSLEPEDFAVYYCQQYHKYPTFGGGTKVEIK
B13: SA301a LC-S93M (antibody, V domains shown)
VH: QVQLQESGPGLVKPSQTLSLTCTVSGYSITSDYNSHWIRQPPGKGLEWIGYIHYSGSTNYNPSLKSRVTISRDTSKNQFSLKLSSVTAADTAVYYCARNYGSIYVNYFDYWGQGTLVTVSS
VL: EIVLTQSPATLSLSPGERATLSCSASSSVSYMYWYQQKPGQAPRPLIYRTSNLASGIPARFSGSGSGTDFTLTISSLEPEDFAVYYCQQYHMYPTFGGGTKVEIK
B14: SA301a LC-S93V (antibody, V domains shown)
VH: QVQLQESGPGLVKPSQTLSLTCTVSGYSITSDYNSHWIRQPPGKGLEWIGYIHYSGSTNYNPSLKSRVTISRDTSKNQFSLKLSSVTAADTAVYYCARNYGSIYVNYFDYWGQGTLVTVSS
VL: EIVLTQSPATLSLSPGERATLSCSASSSVSYMYWYQQKPGQAPRPLIYRTSNLASGIPARFSGSGSGTDFTLTISSLEPEDFAVYYCQQYHVYPTFGGGTKVEIK
B15: SA301a LC-H92E (antibody, V domains shown)
VH: QVQLQESGPGLVKPSQTLSLTCTVSGYSITSDYNSHWIRQPPGKGLEWIGYIHYSGSTNYNPSLKSRVTISRDTSKNQFSLKLSSVTAADTAVYYCARNYGSIYVNYFDYWGQGTLVTVSS
VL: EIVLTQSPATLSLSPGERATLSCSASSSVSYMYWYQQKPGQAPRPLIYRTSNLASGIPARFSGSGSGTDFTLTISSLEPEDFAVYYCQQYESYPTFGGGTKVEIK

In this assay the target is T1, human IL-18BP. In words: BLI, apparent KD. On the technique in general: In BLI a coated tip is dipped into the sample, and binding shifts an interference pattern.
Take B1: the Kd is 0.95 nM. The value for B2 was 0.21 nM. In the case of B3, the Kd was 0.23 nM. As to B4, the Kd came out at 0.15 nM. The value for B5 was 0.52 nM; that for B6 was 0.08 nM.

Regarding B7, the Kd worked out at 0.23 nM. Regarding B8, the Kd amounted to 0.15 nM.

As to B9, the Kd came out at 0.24 nM. For the molecule B10, the Kd was found to be 0.41 nM. Regarding B11, the Kd is 0.19 nM. The value for B12 was 0.16 nM. Regarding B13, the Kd was found to be 0.14 nM. As to B14, the Kd came to 0.19 nM. As for B15, the Kd was found to be 0.36 nM.

Source of the values: patent US20250368745A1 (published 2025).
